For experiment [1], the target named is T1, proprotein convertase PC2.
T1 sequence (P16519 110-638, species assumed, looked up): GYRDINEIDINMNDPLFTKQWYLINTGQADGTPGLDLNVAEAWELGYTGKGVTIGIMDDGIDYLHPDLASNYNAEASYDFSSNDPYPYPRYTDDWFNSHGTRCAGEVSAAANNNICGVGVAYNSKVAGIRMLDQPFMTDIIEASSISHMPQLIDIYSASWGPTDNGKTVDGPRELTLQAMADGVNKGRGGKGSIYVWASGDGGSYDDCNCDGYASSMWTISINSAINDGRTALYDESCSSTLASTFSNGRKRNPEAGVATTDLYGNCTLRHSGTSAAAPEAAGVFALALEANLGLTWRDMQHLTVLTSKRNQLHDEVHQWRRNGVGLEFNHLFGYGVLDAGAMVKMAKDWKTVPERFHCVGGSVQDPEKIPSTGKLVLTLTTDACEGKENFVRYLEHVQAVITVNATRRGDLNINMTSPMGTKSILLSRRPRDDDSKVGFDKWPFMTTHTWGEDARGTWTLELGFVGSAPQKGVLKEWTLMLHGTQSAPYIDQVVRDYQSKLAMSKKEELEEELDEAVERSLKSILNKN
The experiment is described as follows: enzyme inhibition, pERTKR-MCA hydrolysis, ratio of Ki.

In experiment [2] the target is T2, recombinant truncated mouse furin (mouse, UniProt P23188 108-714, N-glycosylated at two of three potential sites).
T2 construct: extracellular domain; Purified by ion exchange and gel permeation; also called recombinant furin; recombinant mouse furin
T2 sequence (P23188 108-714): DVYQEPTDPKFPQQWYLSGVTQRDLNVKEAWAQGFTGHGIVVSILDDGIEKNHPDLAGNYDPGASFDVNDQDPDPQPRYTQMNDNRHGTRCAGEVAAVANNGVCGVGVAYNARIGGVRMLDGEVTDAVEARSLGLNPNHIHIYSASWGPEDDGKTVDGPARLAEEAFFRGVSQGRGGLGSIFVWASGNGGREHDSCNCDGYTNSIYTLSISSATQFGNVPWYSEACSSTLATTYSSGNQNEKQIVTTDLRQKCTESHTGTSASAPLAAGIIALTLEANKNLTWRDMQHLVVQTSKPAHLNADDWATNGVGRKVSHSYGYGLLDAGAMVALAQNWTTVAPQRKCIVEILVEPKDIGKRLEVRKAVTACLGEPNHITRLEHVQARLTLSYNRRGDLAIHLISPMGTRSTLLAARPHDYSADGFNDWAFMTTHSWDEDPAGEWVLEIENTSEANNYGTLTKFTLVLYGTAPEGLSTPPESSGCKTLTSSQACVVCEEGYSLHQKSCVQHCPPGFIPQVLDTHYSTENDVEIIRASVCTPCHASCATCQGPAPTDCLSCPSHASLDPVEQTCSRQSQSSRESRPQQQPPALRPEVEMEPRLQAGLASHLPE
The experiment in a line: enzyme inhibition, pERTKR-MCA hydrolysis (fluorescence), competitive Ki. An excerpt: (§1) The Effect of N-Terminal Acetyl and C-Terminal Amide Groups on Inhibition. We also examined the effect of the terminal acetyl and amide modifications on inhibitory potency.
(§2) Each value represents the mean ± S.D. determined from three independent experiments.

Experiment [3] concerns the target T1, proprotein convertase PC2. Described as above.
From the text: as §1, §2

Experiment [4] addresses T2, recombinant truncated mouse furin. The experiment in a line: enzyme inhibition, pERTKR-MCA hydrolysis, ratio of Ki.
Experiment [5] shares this target. The experiment is described as follows: enzyme inhibition, pERTKR-MCA hydrolysis (fluorescence), competitive Ki.
From the text: as §2
The source holds these as a separate data set.

Experiment [6] has as its target T1, proprotein convertase PC2. Described as above.
From the text: as §2
This is another data set of the same source.

Experiment [7] deals with T3, proprotein convertase PC1.
T3 construct: also called PC3
T3 sequence (P63239 111-753): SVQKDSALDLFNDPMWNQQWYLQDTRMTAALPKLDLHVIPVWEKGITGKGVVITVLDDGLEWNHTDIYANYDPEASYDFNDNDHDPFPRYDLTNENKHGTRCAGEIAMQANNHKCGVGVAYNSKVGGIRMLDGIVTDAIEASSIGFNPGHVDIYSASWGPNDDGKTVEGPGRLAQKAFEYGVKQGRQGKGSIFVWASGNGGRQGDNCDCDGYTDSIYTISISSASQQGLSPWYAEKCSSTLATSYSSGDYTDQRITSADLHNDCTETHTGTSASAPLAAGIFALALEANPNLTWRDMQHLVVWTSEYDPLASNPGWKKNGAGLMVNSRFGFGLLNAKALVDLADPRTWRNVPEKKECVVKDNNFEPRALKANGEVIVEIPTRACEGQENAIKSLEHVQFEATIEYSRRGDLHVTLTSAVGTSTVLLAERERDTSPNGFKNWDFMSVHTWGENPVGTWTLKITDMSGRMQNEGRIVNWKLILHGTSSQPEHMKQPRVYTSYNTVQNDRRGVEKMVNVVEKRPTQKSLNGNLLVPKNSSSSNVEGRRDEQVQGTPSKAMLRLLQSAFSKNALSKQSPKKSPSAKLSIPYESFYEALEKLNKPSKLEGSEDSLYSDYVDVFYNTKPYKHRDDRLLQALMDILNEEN
The experiment is described as follows: enzyme inhibition, pERTKR-MCA hydrolysis, ratio of Ki.

For experiment [8], the target named is T2, recombinant truncated mouse furin. The experiment is described as follows: enzyme inhibition, pERTKR-MCA hydrolysis (fluorescence), competitive Ki.
From the text: (§3) Inhibition of Furin, PACE4, PC1 and PC2 by Different L-Polyarginine Peptides.
as §2
This is another data set of the same source.

Experiment [9] concerns the target T3, proprotein convertase PC1. The experiment is described as above.
From the text: as §3, §2

The target of experiment [10] is T4, proprotein convertase PACE4.
T4 construct: Partially purified preparation
T4 sequence (P29122 150-969, species assumed, looked up): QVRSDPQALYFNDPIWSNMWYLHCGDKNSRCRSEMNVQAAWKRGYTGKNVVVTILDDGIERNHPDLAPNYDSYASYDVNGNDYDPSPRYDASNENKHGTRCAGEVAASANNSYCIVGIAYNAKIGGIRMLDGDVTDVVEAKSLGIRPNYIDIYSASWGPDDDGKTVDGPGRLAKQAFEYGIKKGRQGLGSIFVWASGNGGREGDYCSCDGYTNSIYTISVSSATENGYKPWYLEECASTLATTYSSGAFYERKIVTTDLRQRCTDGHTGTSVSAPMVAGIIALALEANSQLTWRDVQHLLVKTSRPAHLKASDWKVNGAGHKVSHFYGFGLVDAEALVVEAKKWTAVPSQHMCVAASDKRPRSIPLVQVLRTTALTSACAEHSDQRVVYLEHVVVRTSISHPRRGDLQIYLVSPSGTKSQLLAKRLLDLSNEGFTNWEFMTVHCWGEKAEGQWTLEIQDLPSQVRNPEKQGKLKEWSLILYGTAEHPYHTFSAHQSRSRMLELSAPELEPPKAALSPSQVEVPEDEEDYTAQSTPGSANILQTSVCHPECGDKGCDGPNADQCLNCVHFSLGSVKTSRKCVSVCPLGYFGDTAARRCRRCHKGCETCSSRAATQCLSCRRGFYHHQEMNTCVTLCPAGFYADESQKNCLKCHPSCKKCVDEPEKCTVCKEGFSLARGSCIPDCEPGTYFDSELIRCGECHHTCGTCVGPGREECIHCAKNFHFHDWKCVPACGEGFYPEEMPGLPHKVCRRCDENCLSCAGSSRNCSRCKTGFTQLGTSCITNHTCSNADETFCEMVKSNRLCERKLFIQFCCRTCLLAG
The experiment is described as above.
From the text: as §3, §2

For experiment [11] the target is unchanged. The experiment in a line: enzyme inhibition, pERTKR-MCA hydrolysis, ratio of Ki.

Where two headings read alike, the source gives them in different places. Non-standard residues stand in square brackets, D forms with d. No end group written: not given here. A value given as a limit tells only on which side of the number the result lay.

Results on 19 molecules are retold here after patent publication US20030087827A1 (BOARD OF SUPERVISORS OF LOUISIANA STATE UNIVERSITY AND …, published 2003).

B1: Ac-LLRVKR-NH2 (peptide)
peptide: Ac-LLRVKR-NH2
notes: L-hexapeptide; also called acetylated and amidated LLRVKR
Turning to B1, in experiment [1], the “fold smaller Ki than the unmodified peptide LLRVKR” value is around 4 fold. The Ki in [2] came to 3400 nM; in [3], 1000 nM.

B2: LLRVKR (peptide)
peptide: H-LLRVKR-OH
notes: L-hexapeptide without terminal groups; also called unmodified LLRVKR
In the case of B2, the “fold increase in inhibitory potency against the amidated and acetylated peptide Ac-LLRVKR-NH2” value in experiment [4] was found to be 8 fold. The Ki was found to be 420 nM in [2] and 3700 nM in [3].
With Ac-RRKRRR-NH2 [Ac-RRKRRR-NH2], the Ki in experiment [5] is 1300 nM; in experiment [6], 461 µM.
In the same order, the values of Ac-RHKRRR-NH2 (L-hexapeptide) [Ac-RHKRRR-NH2] are 3400 nM and 152 µM.
In the same order, the values of Ac-KHKRRR-NH2 (L-hexapeptide) [Ac-KHKRRR-NH2] are 5200 nM and 280 µM.
The corresponding values for Ac-MHKRRR-NH2 (L-hexapeptide) [Ac-MHKRRR-NH2] are 10300 nM and 216 µM.
As to [dR][dR][dR][dR][dR][dR] (also called D6R; D-hexa-arginine) [Hexa-D-arginine], the “fold increase in Ki against hexa-L-arginine” value in experiment [7] amounted to 3 fold. Also, the Ki worked out at 106 nM in experiment [8], 13 µM in experiment [9] and 580 nM in [10].

B3: Hexa-L-arginine (peptide)
peptide: H-RRRRRR-OH
notes: no terminal modifications; also called hexamer
As to B3, the Ki in experiment [8] was 114 nM; in experiment [9], 3.9 µM; in experiment [10], 520 nM.
Turning to Ac-HRKRRR-NH2 (L-hexapeptide) [Ac-HRKRRR-NH2], the results for the Ki in [5] and in experiment [6] were 2100 nM and 309 µM, respectively.
Ac-KRKRRR-NH2 (L-hexapeptide) [Ac-KRKRRR-NH2]: the Ki in experiment [5] turned out to be 1600 nM; in [6], 391 µM.
In the same order, the values of Ac-HHKRRR-NH2 (L-hexapeptide) [Ac-HHKRRR-NH2] are 13200 nM and 235 µM.
As to Ac-MRKRRR-NH2 (L-hexapeptide) [Ac-MRKRRR-NH2], in experiment [5], the Ki worked out at 2300 nM.

B4: Nona-L-arginine (peptide)
peptide: RRRRRRRRR
notes: no terminal modifications; also called nonamer
Take B4: the Ki in [8] turned out to be 42 nM; in experiment [9], 12 µM; in experiment [10] it was 110 nM.
Consider H-LLRVKR-NH2 (L-hexapeptide, free N-terminus) [LLRVKR-NH2], for which the figures for the Ki in experiment [2] and in experiment [3] were 800 nM and 2300 nM, respectively.

B5: Tetra-L-arginine (peptide)
peptide: H-RRRR-OH
notes: no terminal modifications; also called tetramer
B5: the “fold increase in Ki against the pentamer (penta-L-arginine)” value in experiment [4] is around 5 fold. Further, the Ki is 6400 nM in [8], above 200 µM in experiment [9] and above 200000 nM in experiment [10].
Regarding Ac-LLRVKR-OH (L-hexapeptide, free C-terminus) [Ac-LLRVKR], the values for the Ki in [2] and in experiment [3] were 3500 nM and 1300 nM, respectively.

B6: Hepta-L-arginine (peptide)
peptide: RRRRRRR
notes: no terminal modifications; also called heptamer
B6: the results for the Ki in experiment [8], in experiment [9] and in experiment [10] were 68 nM, 5.2 µM and 240 nM, respectively.

B7: Penta-L-arginine (peptide)
peptide: RRRRR
notes: no terminal modifications; also called pentamer; pentameric polyarginine
On to B7, for which the “fold increase in Ki against the hexamer (hexa-L-arginine)” value in [4] was around 10 fold. Further, the “ratio of Ki to that of the hexamer (SEQ ID NO 14)” value in experiment [11] was around 2 fold. Also, the values for the Ki in [8], in [9] and in experiment [10] were 990 nM, 14 µM and 980 nM, respectively.

B8: Octa-L-arginine (peptide)
peptide: RRRRRRRR
notes: no terminal modifications; also called octamer
On to B8, for which the Ki in experiment [8] stood at 61 nM; in experiment [9], 5.1 µM; in [10], 150 nM.

As a reminder, the Ki is the dissociation constant of the complex between target and ligand, obtained from inhibition or displacement.
